The values below are quoted from earlier work in article PMC4860049.

This data set concerns the target CHMP5 (Homo sapiens) (UniProt Q9NZZ3).
Chain of UniProt Q9NZZ3 (Q9NZZ3 whole entry): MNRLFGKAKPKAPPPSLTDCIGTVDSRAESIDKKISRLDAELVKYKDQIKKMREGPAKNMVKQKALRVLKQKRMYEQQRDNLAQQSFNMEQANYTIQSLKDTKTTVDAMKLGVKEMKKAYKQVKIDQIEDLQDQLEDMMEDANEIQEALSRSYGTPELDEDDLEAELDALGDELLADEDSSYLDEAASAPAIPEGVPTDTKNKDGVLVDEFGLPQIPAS

One may read the Kd as the equilibrium constant for the complex coming apart. Consider LIP5 MIT2 (from UniProt Q9NP79), for which the Kd is 3 nM.
